{
  "source": "patent US20140162952A1",
  "about": "(ONCOTHERAPY SCIENCE, published 2014)",
  "key": {"[1]": {"biological_target": "T1, HA-PHB2 (HA-tagged PHB2 construct) (human, UniProt Q99623 1-299, limits assumed)", "T1 construct": "Expressed by transfection in COS-7 or HEK293T cells; also called PHB2/REA construct; HA-tagged PHB2/REA (WT); not shown: HA tag", "T1 sequence (Q99623 whole entry)": "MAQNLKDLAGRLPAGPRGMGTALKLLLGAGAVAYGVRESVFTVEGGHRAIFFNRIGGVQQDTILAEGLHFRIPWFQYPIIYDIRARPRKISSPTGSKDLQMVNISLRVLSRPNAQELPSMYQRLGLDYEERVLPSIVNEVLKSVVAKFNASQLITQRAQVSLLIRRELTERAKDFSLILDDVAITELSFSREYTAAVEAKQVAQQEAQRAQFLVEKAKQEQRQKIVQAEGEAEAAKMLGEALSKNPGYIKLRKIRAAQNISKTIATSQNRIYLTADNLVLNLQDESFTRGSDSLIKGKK", "assay": "co-IP from COS-7 cells co-transfected with a Flag-ERAP1 construct and HA-PHB2; IP anti-Flag, IB anti-HA"}, "[2]": {"biological_target": "T1, HA-PHB2 (HA-tagged PHB2 construct)", "assay": "co-IP from COS-7 cells co-transfected with a Flag-ERAP1 construct and HA-PHB2; IP anti-Flag, IB anti-HA", "remark": "listed apart in the source"}, "[3]": {"biological_target": "inherent PHB2/REA (prohibitin 2 / Repressor of Estrogen Activity) (human, UniProt Q99623 2-299, limits assumed)", "sequence (Q99623 2-299 limits assumed)": "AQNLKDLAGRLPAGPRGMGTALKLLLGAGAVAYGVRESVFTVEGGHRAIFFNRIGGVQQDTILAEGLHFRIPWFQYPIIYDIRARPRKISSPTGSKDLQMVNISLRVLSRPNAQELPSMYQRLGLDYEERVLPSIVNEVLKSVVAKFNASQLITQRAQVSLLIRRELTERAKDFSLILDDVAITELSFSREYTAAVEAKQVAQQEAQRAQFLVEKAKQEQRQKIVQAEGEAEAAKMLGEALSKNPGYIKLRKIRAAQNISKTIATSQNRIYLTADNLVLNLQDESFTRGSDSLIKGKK", "assay": "cell-based or functional assay"}, "[4]": {"biological_target": "T1, HA-PHB2 (HA-tagged PHB2 construct)", "assay": "co-immunoprecipitation from COS-7 cells, IP anti-FLAG, blot anti-HA (second experiment)"}, "[5]": {"biological_target": "T1, HA-PHB2 (HA-tagged PHB2 construct)", "assay": "COS-7 co-transfection with the PHB2/REA construct, IP with anti-HA antibody, immunoblot"}, "[6]": {"biological_target": "T1, HA-PHB2 (HA-tagged PHB2 construct)", "assay": "COS-7 co-transfection with the PHB2/REA construct, IP with anti-FLAG antibody, immunoblot"}, "[7]": {"biological_target": "T1, HA-PHB2 (HA-tagged PHB2 construct)", "assay": "COS-7 co-transfection with the PHB2/REA construct, IP and immunoblot"}},
  "note": "Like-named read-outs stand apart in the source and are kept apart here.",
  "data": [
    {"binder": "ERAP1 1468-2177 (Flag-ERAP1) (other, not shown: small tags and cut ends, deletion construct) CPRQHQPPTLDLLFELLRDVTKTPGPGFGIYAVVHLLLPVMSVWLRRSHKDHSYWDMASANFKHAIGLSCELVVEHIQSFLHSDIRYESMINTMLKDLFELLVACVAKPTETISRVGCSCIRYVLVTAGPVFTEEMWRLACCALQDAFSATLKPVKDLLGCFHSGTESFSGEGCQVRVAAPSSSPSAEAEYWRIRAMAQQVFMLDTQCSPKTPNNFDHAQSCQLIIELPPDEKPNGHTKKSVSFREIVVSLLSHQVLLQNLYDILLEEFVKGPSPGEEKTIQVPEAKLAGFLRYISMQNLAVIFDLLLDSYRTAREFDTSPGLKCLLKKVSGIGGAANLYRQSAMSFNIYFHALVCAVLTNQETITAEQVKKVLFEDDERSTDSSQQCSSEDEDIFEETAQVSPPRGKEKRQWRARMPLLSVQPVSNADWVWLVKRLHKLCMELCNNYIQMHLDLENCMEEPPIFKGDPFFILPSFQSESSTPSTGGFSGKETPSEDDRSQSREHMGESLSLKAGGGDLLLPPSPKVEKKDPSRKKEWWENAGNKIYTMAADKTISKLMTEYKKRKQQHNLSAFPKEVKVEKKGEPLGPRGQDSPLLQRPQHLMDQGQMRHSFSAGPELLRQDKRPRSGSTGSSLSVSVRDAEAQIQAWTNMVLTVLNQIQILPDQTFTALQPAVFPCISQLTCHVTDIRVRQAVREWLGRVGRVYDIIV", "values": [
      {"measurement": "binding result", "setting": "[1]", "result": "no binding"}
    ]},
    {"binder": "Flag-ERAP1 1-250 (other, not shown: small tags and cut ends, deletion construct) MEEILRKLQKEASGSKYKAIKESCTWALETLGGLDTIVKIPPHVLREKCLLPLQLALESKNVKLAQHALAGMQKLLSEERFVSMETDSDEKQLLNQILNAVKVTPSLNEDLQVEVMKVLLCITYTPTFDLNGSAVLKIAEVCIETYISSCHQRSINTAVRATLSQMLSDLTLQLRQRQENTIIENPDVPQDFGNQGSTVESLCDDVVSVLTVLCEKLQAAINDSQQLQLLYLECILSVLSSSSSSMHLHR", "values": [
      {"measurement": "binding result", "setting": "[2]", "result": "binds"}
    ]},
    {"binder": "RRRRRRRRRRRQMLSDLTLQLRQR", "note": "[ERAP1-peptide (11R-bound dominant negative peptide, ERAP1 165-177)]", "values": [
      {"measurement": "IC50 of suppression effect for the cell proliferation in MCF-7 cells for 24 hours", "setting": "[3]", "result": 2.18, "unit": "µM"}
    ]},
    {"binder": "ERAP1 alanine mutant of D169 (D169A) (other, also called D169 mutant construct; not shown: Flag tag) MEEILRKLQKEASGSKYKAIKESCTWALETLGGLDTIVKIPPHVLREKCLLPLQLALESKNVKLAQHALAGMQKLLSEERFVSMETDSDEKQLLNQILNAVKVTPSLNEDLQVEVMKVLLCITYTPTFDLNGSAVLKIAEVCIETYISSCHQRSINTAVRATLSQMLSALTLQLRQRQENTIIENPDVPQDFGNQGSTVESLCDDVVSVLTVLCEKLQAAINDSQQLQLLYLECILSVLSSSSSSMHLHRRFTDLIWKNLCPALIVILGNPIHDKTITSAHTSSTSTSLESDSASPGVSDHGRGSGCSCTAPALSGPVARTIYYIAAELVRLVGSVDSMKPVLQSLYHRVLLYPPPQHRVEAIKIMKEILGSPQRLCDLAGPSSTESESRKRSISKRKSHLDLLKLIMDGMTEACIKGGIEACYAAVSCVCTLL", "values": [
      {"measurement": "ratio of the coprecipitated band (ERAP1 1-434 = 100)", "setting": "[4]", "result": 33},
      {"measurement": "coprecipitation band, ratio when that with ERAP1 (1-434 aa) is designated as 100", "setting": "[5]", "result": 0, "unit": "%"},
      {"measurement": "coprecipitation band, ratio when that with ERAP1 (1-434 aa) is designated as 100", "setting": "[6]", "result": 22, "unit": "%"}
    ]},
    {"binder": "ERAP1 alanine mutant of Q165 and D169 (Q165A, D169A) (other, not shown: Flag tag) MEEILRKLQKEASGSKYKAIKESCTWALETLGGLDTIVKIPPHVLREKCLLPLQLALESKNVKLAQHALAGMQKLLSEERFVSMETDSDEKQLLNQILNAVKVTPSLNEDLQVEVMKVLLCITYTPTFDLNGSAVLKIAEVCIETYISSCHQRSINTAVRATLSAMLSALTLQLRQRQENTIIENPDVPQDFGNQGSTVESLCDDVVSVLTVLCEKLQAAINDSQQLQLLYLECILSVLSSSSSSMHLHRRFTDLIWKNLCPALIVILGNPIHDKTITSAHTSSTSTSLESDSASPGVSDHGRGSGCSCTAPALSGPVARTIYYIAAELVRLVGSVDSMKPVLQSLYHRVLLYPPPQHRVEAIKIMKEILGSPQRLCDLAGPSSTESESRKRSISKRKSHLDLLKLIMDGMTEACIKGGIEACYAAVSCVCTLL", "values": [
      {"measurement": "coprecipitation band, ratio when that with ERAP1 (1-434 aa) is designated as 100", "setting": "[7]", "result": 12, "unit": "%"}
    ]},
    {"binder": "ERAP1 alanine mutant of Q165 (Q165A) (other, also called Q165 mutant construct; not shown: Flag tag) MEEILRKLQKEASGSKYKAIKESCTWALETLGGLDTIVKIPPHVLREKCLLPLQLALESKNVKLAQHALAGMQKLLSEERFVSMETDSDEKQLLNQILNAVKVTPSLNEDLQVEVMKVLLCITYTPTFDLNGSAVLKIAEVCIETYISSCHQRSINTAVRATLSAMLSDLTLQLRQRQENTIIENPDVPQDFGNQGSTVESLCDDVVSVLTVLCEKLQAAINDSQQLQLLYLECILSVLSSSSSSMHLHRRFTDLIWKNLCPALIVILGNPIHDKTITSAHTSSTSTSLESDSASPGVSDHGRGSGCSCTAPALSGPVARTIYYIAAELVRLVGSVDSMKPVLQSLYHRVLLYPPPQHRVEAIKIMKEILGSPQRLCDLAGPSSTESESRKRSISKRKSHLDLLKLIMDGMTEACIKGGIEACYAAVSCVCTLL", "values": [
      {"measurement": "ratio of the coprecipitated band (ERAP1 1-434 = 100)", "setting": "[4]", "result": 63},
      {"measurement": "coprecipitation band, ratio when that with ERAP1 (1-434 aa) is designated as 100", "setting": "[5]", "result": 24, "unit": "%"},
      {"measurement": "coprecipitation band, ratio when that with ERAP1 (1-434 aa) is designated as 100", "setting": "[6]", "result": 60, "unit": "%"}
    ]},
    {"binder": "Flag-ERAP1 1-100 (other, not shown: small tags and cut ends, deletion construct) MEEILRKLQKEASGSKYKAIKESCTWALETLGGLDTIVKIPPHVLREKCLLPLQLALESKNVKLAQHALAGMQKLLSEERFVSMETDSDEKQLLNQILNA", "values": [
      {"measurement": "binding result", "setting": "[2]", "result": "no binding"}
    ]},
    {"binder": "ERAP1 435-2177 (Flag-ERAP1) (other, not shown: small tags and cut ends) GALDELSQGKGLSEGQVQLLLLRLEELKDGAEWSRDSMEINEADFRWQRRVLSSEHTPWESGNERSLDISISVTTDTGQTTLEGELGQTTPEDHSGNHKNSLKSPAIPEGKETLSKVLETEAVDQPDVVQRSHTVPYPDITNFLSVDCRTRSYGSRYSESNFSVDDQDLSRTEFDSCDQYSMAAEKDSGRSDVSDIGSDNCSLADEEQTPRDCLGHRSLRTAALSLKLLKNQEADQHSARLFIQSLEGLLPRLLSLSNVEEVDTALQNFASTFCSGMMHSPGFDGNSSLSFQMLMNADSLYTAAHCALLLNLKLSHGDYYRKRPTLAPGVMKDFMKQVQTSGVLMVFSQAWIEELYHQVLDRNMLGEAGYWGSPEDNSLPLITMLTDIDGLESSAIGGQLMASAATESPFAQSRRIDDSTVAGVAFARYILVGCWKNLIDTLSTPLTGRMAGSSKGLAFILGAEGIKEQNQKERDAICMSLDGLRKAARLSCALGVAANCASALAQMAAASCVQEEKEEREAQEPSDAITQVKLKVEQKLEQIGKVQGVWLHTAHVLCMEAILSVGLEMGSHNPDCWPHVFRVCEYVGTLEHNHFSDGASQPPLTISQPQKATGSAGLLGDPECEGSPPEHSPEQGRSLSTAPVVQPLSIQDLVREGSRGRASDFRGGSLMSGSSAAKVVLTLSTQADRLFEDATDKLNLMALGGFLYQLKKASQSQLFHSVTDTVDYSLAMPGEVKSTQDRKSALHLFRLGNAMLRIVRSKARPLLHVMRCWSLVAPHLVEAACHKERHVSQKAVSFIHDILTEVLTDWNEPPHFHFNEALFRPFERIMQLELCDEDVQDQVVTSIGELVEVCSTQIQSGWRPLFSALETVHGGNKSEMKEYLVGDYSMGKGQAPVFDVFEAFLNTDNIQVFANAATSYIMCLMKFVKGLGEVDCKEIGDCAPAPGAPSTDLCLPALDYLRRCSQLLAKIYKMPLKPIFLSGRLAGLPRRLQEQSASSEDGIESVLSDFDDDTGLIEVWIILLEQLTAAVSNCPRQHQPPTLDLLFELLRDVTKTPGPGFGIYAVVHLLLPVMSVWLRRSHKDHSYWDMASANFKHAIGLSCELVVEHIQSFLHSDIRYESMINTMLKDLFELLVACVAKPTETISRVGCSCIRYVLVTAGPVFTEEMWRLACCALQDAFSATLKPVKDLLGCFHSGTESFSGEGCQVRVAAPSSSPSAEAEYWRIRAMAQQVFMLDTQCSPKTPNNFDHAQSCQLIIELPPDEKPNGHTKKSVSFREIVVSLLSHQVLLQNLYDILLEEFVKGPSPGEEKTIQVPEAKLAGFLRYISMQNLAVIFDLLLDSYRTAREFDTSPGLKCLLKKVSGIGGAANLYRQSAMSFNIYFHALVCAVLTNQETITAEQVKKVLFEDDERSTDSSQQCSSEDEDIFEETAQVSPPRGKEKRQWRARMPLLSVQPVSNADWVWLVKRLHKLCMELCNNYIQMHLDLENCMEEPPIFKGDPFFILPSFQSESSTPSTGGFSGKETPSEDDRSQSREHMGESLSLKAGGGDLLLPPSPKVEKKDPSRKKEWWENAGNKIYTMAADKTISKLMTEYKKRKQQHNLSAFPKEVKVEKKGEPLGPRGQDSPLLQRPQHLMDQGQMRHSFSAGPELLRQDKRPRSGSTGSSLSVSVRDAEAQIQAWTNMVLTVLNQIQILPDQTFTALQPAVFPCISQLTCHVTDIRVRQAVREWLGRVGRVYDIIV", "values": [
      {"measurement": "binding result", "setting": "[1]", "result": "no binding"}
    ]}
  ]
}
